{
  "source": "patent US20240252614A1",
  "about": "(Pfizer, published 2024)",
  "key": {"[1]": {"target": "hMPV B F WT Control (hMPV B, UniProt Q6WB98 19-102)", "test": "BLI, no stress", "protocol": "(§1) All measurements were conducted at 30° C. temperature in 96-well black plates (Corning, Corning, NY) with a final volume of 240 μL per well at a constant agitation rate of 1000 RPM.\n(§2) Conformation integrity of hMPV B F protein mutants were evaluated by a thermal stress experiment. Crude cell culture supernatants were normalized based on the results of the titer quantitation and then incubated for 1 hour at room temperature and two higher temperatures. For the testing of hMPV B single mutants, the two temperatures were 53° C. and 56° C. After the incubation, the protein mutants were probed with prefusion specific monoclonal antibody hMPV-2 by OCTET HTX. Anti-Human IgG Fc Capture (AHC) biosensors were first equilibrated in PB before being dipped into more PB for to establish the initial baseline. Biosensors were incubated with hMPV-2 before being equilibrated in PB to establish the experimental baseline. The mAb-bound biosensors were then dipped into the thermal stresses cell culture supernatants for 5 minutes."}, "[2]": {"target": "T1, hMPV100 (hMPV B, UniProt Q6WB98 19-102)", "T1 construct": "T411C-Q434C", "test": "BLI, no stress", "protocol": "as §1, §2"}, "[3]": {"target": "T2, hMPV101 (hMPV B, UniProt Q6WB98 19-102)", "T2 construct": "A140C-S149C", "test": "BLI, no stress", "protocol": "as §1, §2"}, "[4]": {"target": "T3, hMPV102 (hMPV B, UniProt Q6WB98 19-102)", "T3 construct": "L141C-A161C", "test": "BLI, no stress", "protocol": "as §1, §2"}, "[5]": {"target": "T4, hMPV103 (hMPV B, UniProt Q6WB98 19-102)", "T4 construct": "E146C-T160C", "test": "BLI, no stress", "protocol": "as §1, §2"}, "[6]": {"target": "T5, hMPV104 (hMPV B, UniProt Q6WB98 19-102)", "T5 construct": "A459P", "test": "BLI, no stress", "protocol": "as §1, §2"}, "[7]": {"target": "T6, hMPV105 (hMPV B, UniProt Q6WB98 19-102)", "T6 construct": "G239A", "test": "BLI, no stress", "protocol": "as §1, §2"}, "[8]": {"target": "T7, hMPV106 (hMPV B, UniProt Q6WB98 19-102)", "T7 construct": "T49I", "test": "BLI, no stress", "protocol": "as §1, §2"}, "[9]": {"target": "T8, hMPV107 (hMPV B, UniProt Q6WB98 19-102)", "T8 construct": "S149T", "test": "BLI, no stress", "protocol": "as §1, §2"}, "[10]": {"target": "T9, hMPV108 (hMPV B, UniProt Q6WB98 19-102)", "T9 construct": "T365I", "test": "BLI, no stress", "protocol": "as §1, §2"}, "[11]": {"target": "T10, hMPV078 (hMPV A, UniProt Q6WB98 19-102)", "T10 construct": "T411C-Q434C, A140C-S149C", "test": "BLI, 53C stress", "protocol": "(§3) The OCTET HTX (Sartorius, Gottingen, Germany) instrument was used to evaluate the expression and conformational integrity for each mutant. All measurements were conducted at 30° C. temperature in 96-well black plates (Corning, Corning, NY) with a final volume of 240 μL per well at a constant agitation rate of 1000 RPM.\n(§4) Conformation integrity of hMPV A F protein mutants were evaluated by thermal stress experiments. Crude cell culture supernatants were normalized based on the results of the titer quantitation and then incubated for 1 hour at room temperature and two higher temperatures. […] Anti-Human IgG Fc Capture (AHC) biosensors were first equilibrated in PB before being dipped into more PB to establish the initial baseline. […] The mAb-bound biosensors were then dipped into the thermal stressed cell culture supernatants for 5 minutes. The kinetics analysis was done by OCTET data analysis software (version 12.0, Sartorius) based on curve fitting of the entire associate step."}, "[12]": {"target": "T11, hMPV079 (hMPV A, UniProt Q6WB98 19-102)", "T11 construct": "T411C-Q434C, A140C-S149C, A459P", "test": "BLI, 53C stress", "protocol": "as §3, §4"}, "[13]": {"target": "T12, hMPV081 (hMPV A, UniProt Q6WB98 19-102)", "T12 construct": "T411C-Q434C, A140C-S149C, T365I", "test": "BLI, 53C stress", "protocol": "as §3, §4"}, "[14]": {"target": "T13, hMPV082 (hMPV A, UniProt Q6WB98 19-102)", "T13 construct": "T411C-Q434C, A140C-S149C, G239A", "test": "BLI, 53C stress", "protocol": "as §3, §4"}, "[15]": {"target": "T14, hMPV083 (hMPV A, UniProt Q6WB98 19-102)", "T14 construct": "T411C-Q434C, A140C-S149C, A459P, G239A, T49I, T365I", "test": "BLI, 53C stress", "protocol": "as §3, §4"}, "[16]": {"target": "T15, hMPV084 (hMPV A, UniProt Q6WB98 19-102)", "T15 construct": "T411C-Q434C, L141C-A161C", "test": "BLI, 53C stress", "protocol": "as §3, §4"}, "[17]": {"target": "T16, hMPV085 (hMPV A, UniProt Q6WB98 19-102)", "T16 construct": "T411C-Q434C, L141C-A161C, A459P", "test": "BLI, 53C stress", "protocol": "as §3, §4"}, "[18]": {"target": "T17, hMPV086 (hMPV A, UniProt Q6WB98 19-102)", "T17 construct": "T411C-Q434C, L141C-A161C, T49I; also called hMP0086", "test": "BLI, 53C stress", "protocol": "as §3, §4"}, "[19]": {"target": "T18, hMPV087 (hMPV A, UniProt Q6WB98 19-102)", "T18 construct": "T411C-Q434C, L141C-A161C, T365I", "test": "BLI, 53C stress", "protocol": "as §3, §4"}, "[20]": {"target": "T19, hMPV088 (hMPV A, UniProt Q6WB98 19-102)", "T19 construct": "T411C-Q434C, L141C-A161C, G239A", "test": "BLI, 53C stress", "protocol": "as §3, §4"}, "[21]": {"target": "T20, hMPV089 (hMPV A, UniProt Q6WB98 19-102)", "T20 construct": "T411C-Q434C, L141C-A161C, S149T", "test": "BLI, 53C stress", "protocol": "as §3, §4"}, "[22]": {"target": "T21, hMPV090 (hMPV A, UniProt Q6WB98 19-102)", "T21 construct": "T411C-Q434C, L141C-A161C, A459P, G239A, T49I, S149T, T365I", "test": "BLI, 53C stress", "protocol": "as §3, §4"}, "[23]": {"target": "T22, hMPV097 (hMPV A, UniProt Q6WB98 19-102)", "T22 construct": "T411C-Q434C, E146C-T160C, A459P, G239A, T49I, S149T, T365I", "test": "BLI, 53C stress", "protocol": "as §3, §4"}, "[24]": {"target": "hMPV A F WT Control (hMPV A, UniProt Q6WB98 19-102)", "test": "BLI, 53C stress", "protocol": "as §3, §4"}, "[25]": {"target": "F protein of hMPV A virus (human metapneumovirus A)", "test": "cell-based or functional assay"}, "[26]": {"target": "F protein of hMPV B virus (human metapneumovirus B)", "test": "cell-based or functional assay"}, "[27]": {"target": "T23, hMPV067 (hMPV A, UniProt Q6WB98 19-102)", "T23 construct": "S149T", "test": "BLI, 50C stress, vs WT Control", "protocol": "as §3, §4"}, "[28]": {"target": "T24, PIV1050 (PIV1)", "T24 construct": "F113G, F114S, Q92C-G134C, A466V, S473V, A480V", "test": "BLI, 56C stress;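 also: binding of thermally stressed PIV1 F mutant supernatant to mAb on AHC biosensors for 5 min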", "protocol": "as §3\n(§5) Conformation integrity of PIV1 F protein mutants were evaluated by a thermal stress experiment. Crude cell culture supernatants were normalized based on the results of the titer quantitation and then incubated for 1 hour at room temperature and two higher temperatures. For the initial testing of PIV1 mutants, the two temperatures were 50° C. and 53° C. […] Anti-Human IgG Fc Capture (AHC) biosensors were first equilibrated in PB for before being dipped into more PB to establish the initial baseline. […] The mAb-bound biosensors were then dipped into the thermal stresses cell culture supernatants for 5 minutes."}, "[29]": {"target": "T25, PIV1056 (PIV1)", "T25 construct": "F113G, F114S, A466L, S473L, A480L, Q92A, G134A", "test": "BLI, 56C stress", "protocol": "as §3, §5"}, "[30]": {"target": "T26, PIV1058 (PIV1)", "T26 construct": "A466L, S473L, Q92A, G134A", "test": "BLI, 56C stress", "protocol": "as §3, §5"}, "[31]": {"target": "T27, PIV1061 (PIV1)", "T27 construct": "Q92L, G134A, A466L, S473L", "test": "BLI, 56C stress", "protocol": "as §3, §5"}, "[32]": {"target": "T28, PIV1062 (PIV1)", "T28 construct": "F113G, F114S, A466L, S473L, A480L, Q92A, G134L", "test": "BLI, 56C stress", "protocol": "as §3, §5"}, "[33]": {"target": "F protein of hPIV1 virus (human parainfluenza virus 1)", "test": "cell-based or functional assay"}},
  "data": [
    {"binder": "hMPV-2 mAb (antibody, V domains shown, human IgG1) VH: QVQLQQSGAEVKKPGASVKVSCKASGYTFTSYGISWVRQAPGQGLEWMGWISGYNGNTNYAQTFQGTFTMTTDTSTSTAYMELRRLRSGDTAVYYCARDRYYASGSYNGMDVWGQGTTVTVSS VL: QSALTQPPSASGAPGQRVTVSCSGSSSNVGSSSVYWYQQLPGTAPKLLIYRNNQRPSGVPDRFSGSKSGTSASLAISGLRSEDEADYYCAAWDDSLSGWVFGGGTKLTVLG", "values": [
      {"measurement": "Response Shift", "setting": "[1]", "result": 0.867, "unit": "nm"},
      {"measurement": "Response Shift", "setting": "[2]", "result": 0.863, "unit": "nm"},
      {"measurement": "Response Shift", "setting": "[3]", "result": 0.707, "unit": "nm"},
      {"measurement": "Response Shift", "setting": "[4]", "result": 0.84, "unit": "nm"},
      {"measurement": "Response Shift", "setting": "[5]", "result": 0.814, "unit": "nm"},
      {"measurement": "Response Shift", "setting": "[6]", "result": 0.85, "unit": "nm"},
      {"measurement": "Response Shift", "setting": "[7]", "result": 0.906, "unit": "nm"},
      {"measurement": "Response Shift", "setting": "[8]", "result": 0.912, "unit": "nm"},
      {"measurement": "Response Shift", "setting": "[9]", "result": 0.89, "unit": "nm"},
      {"measurement": "Response Shift", "setting": "[10]", "result": 0.89, "unit": "nm"},
      {"measurement": "Response Shift", "setting": "[11]", "result": 0.757, "unit": "nm"},
      {"measurement": "Response Shift", "setting": "[12]", "result": 0.73, "unit": "nm"},
      {"measurement": "Response Shift", "setting": "[13]", "result": 0.778, "unit": "nm"},
      {"measurement": "Response Shift", "setting": "[14]", "result": 0.816, "unit": "nm"},
      {"measurement": "Response Shift", "setting": "[15]", "result": 0.755, "unit": "nm"},
      {"measurement": "Response Shift", "setting": "[16]", "result": 0.776, "unit": "nm"},
      {"measurement": "Response Shift", "setting": "[17]", "result": 0.672, "unit": "nm"},
      {"measurement": "Response Shift", "setting": "[18]", "result": 0.746, "unit": "nm"},
      {"measurement": "Response Shift", "setting": "[19]", "result": 0.709, "unit": "nm"},
      {"measurement": "Response Shift", "setting": "[20]", "result": 0.816, "unit": "nm"},
      {"measurement": "Response Shift", "setting": "[21]", "result": 0.801, "unit": "nm"},
      {"measurement": "Response Shift", "setting": "[22]", "result": 0.815, "unit": "nm"},
      {"measurement": "Response Shift", "setting": "[23]", "result": 0.82, "unit": "nm"},
      {"measurement": "Response Shift", "setting": "[24]", "result": -0.014, "unit": "nm"},
      {"measurement": "IC50, virus neutralization assay", "setting": "[25]", "result": 20, "unit": "µg/mL"},
      {"measurement": "IC50, virus neutralization assay", "setting": "[26]", "result": 23.2, "unit": "µg/mL"},
      {"measurement": "Fold change vs WT", "setting": "[27]", "result": 2.3, "unit": "fold"}
    ]},
    {"binder": "PIV1-8 mAb (antibody, V domains shown, human IgG1; also called hPIV1-8 mAb; hPIV1-8) VH: QVQLVQSGAEVKKPGSSVKVSCEASGGTFSNYVISWVRQAPGQGLEWMGGIIPVFATAKYAQKFQGRVTIIADQSTNTAYLELSSLRSDDTAVYFCASVDSGGTWWDAFAIWGQGTMVTVSS VL: QAVVTQPRSVSGSPGQAVTISCTGTSSDVGGYNYVSWYQHHPGKAPKLIIYDVTKRPSGVPDRFSGSKSGNTASLTISGLQTEYEADYYCCSYAGSYTLVFGGGTKLTVLG", "values": [
      {"measurement": "Response Shift", "setting": "[28]", "result": 0.695, "unit": "nm"},
      {"measurement": "Response Shift", "setting": "[29]", "result": 0.751, "unit": "nm"},
      {"measurement": "Response Shift", "setting": "[30]", "result": 0.543, "unit": "nm"},
      {"measurement": "Response Shift", "setting": "[31]", "result": 0.526, "unit": "nm"},
      {"measurement": "Response Shift", "setting": "[32]", "result": 0.623, "unit": "nm"},
      {"measurement": "IC50, virus neutralization assay", "setting": "[33]", "result": 0.005, "unit": "µg/mL"}
    ]}
  ]
}
